From patent US20190119407A1 (Amgen, published 2019)

Tests used:
cynomolgus TL1A [1] = biological target: T1, cynomolgus TL1A (cynomolgus monkey, UniProt G7PRK8 72-251); assay: SPR, mAb captured on anti-human Fc chip, TL1A injected, 1:1 model
T1 construct: also called cyno TL1A; cynomolgus monkey TL1A
T1 sequence: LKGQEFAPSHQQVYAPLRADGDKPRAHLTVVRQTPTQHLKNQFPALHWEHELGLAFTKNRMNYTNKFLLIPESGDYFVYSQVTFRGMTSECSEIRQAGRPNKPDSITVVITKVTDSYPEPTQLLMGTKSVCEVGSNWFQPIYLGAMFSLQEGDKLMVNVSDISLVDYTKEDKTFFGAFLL
Procedure: (§1) On rate, off rate and equilibrium dissociation constant were calculated using 1:1 binding model on BIAevaluation software.

human TL1A [2] = biological target: T2, human TL1A (human, UniProt O95150 72-251, limits assumed); assay: as above
T2 construct: The assays name only 'human TL1A protein'; also called huTL1A; Hu TL1A
T2 sequence (looked up): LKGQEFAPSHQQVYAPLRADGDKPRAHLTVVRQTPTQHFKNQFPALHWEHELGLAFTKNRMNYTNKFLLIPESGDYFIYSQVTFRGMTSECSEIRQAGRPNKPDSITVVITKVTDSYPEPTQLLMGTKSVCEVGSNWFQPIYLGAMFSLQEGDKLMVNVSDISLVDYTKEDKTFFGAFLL
Procedure: as §1

cynomolgus TL1A [3] = biological target: T1, cynomolgus TL1A; assay: cell-based or functional assay
human TL1A [4] = biological target: T2, human TL1A; assay: cell-based or functional assay
cynomolgus TL1A [5] = biological target: T1, cynomolgus TL1A; assay: SPR, Fab captured on anti-huFab chip, TL1A injected
Procedure: as §1

human TL1A [6] = biological target: T2, human TL1A; assay: SPR, Fab captured on anti-huFab chip, TL1A injected, 1:1 model
Procedure: as §1

human TNF-α = biological target: T3, human TNF-α (human, UniProt P01375 77-233); assay: SPR, bispecific captured on anti-human Fc chip, TNF injected, 1:1 model
T3 construct: also called Hu TNF; soluble hu TNF
T3 sequence (P01375 77-233 limits assumed): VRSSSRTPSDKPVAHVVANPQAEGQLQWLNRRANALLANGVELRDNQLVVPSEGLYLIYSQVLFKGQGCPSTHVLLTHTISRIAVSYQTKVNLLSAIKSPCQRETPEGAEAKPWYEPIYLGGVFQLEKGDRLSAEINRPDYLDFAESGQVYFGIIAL
Procedure: Goat anti-human Fc was first immobilized on SCM5 sensor chip using amine coupling. […] On rate, off rate and equilibrium dissociation constant were calculated using 1:1 binding model on BIAevaluation software.

human TL1A [7] = biological target: T2, human TL1A; assay: SPR, bispecific captured on anti-human Fc chip, TL1A injected, 1:1 model
Procedure: as §1

cynomolgus TL1A [8] = biological target: T1, cynomolgus TL1A; assay: SPR, Fab captured on anti-huFab chip, TL1A injected, 1:1 model
Procedure: as §1

B1: anti-TL1A mAb 3C6 (antibody, human IgG1, kappa, N297G, V domains shown)
VH: QVQLVESGGGVVQPGRSLRLSCAASGFTFSSYGMHWVRQAPGKGLEWVAVISYDGNNKLYTDSVKGRFTISRDDSKSTLYLQMNSLRAEDTAVYYCARDPTVTLYYYYGMDVWGQGTTVTVSS
VL: DIQMTQSPSSLSASVGDRVTITCRTSQDIRDDLGWYQQKPGKAPKRLIYDASSLQSGVPSRFSGSGSGTEFTLTISSLQPEDFATYYCLQHNSYPPTFGQGTKVEIKR
notes: also called PL-39112; iPS 284112
Kd (cynomolgus TL1A [1]): 2.4 nM
koff (cynomolgus TL1A [1]): 0.0014 s⁻¹
kon (cynomolgus TL1A [1]): 570000 M⁻¹ s⁻¹
Kd (human TL1A [2]): < 0.1 nM
koff (human TL1A [2]): < 5e-05 s⁻¹
NF-kB IC50 nM, cyno TL1A (2 nM) (cynomolgus TL1A [3]): > 100 nM
NF-kB IC50 nM, huTL1A (0.2 nM) (human TL1A [4]): 0.153 nM

B2: anti-TL1A Fab 3C6 (Fab, V domains shown)
VH: QVQLVESGGGVVQPGRSLRLSCAASGFTFSSYGMHWVRQAPGKGLEWVAVISYDGNNKLYTDSVKGRFTISRDDSKSTLYLQMNSLRAEDTAVYYCARDPTVTLYYYYGMDVWGQGTTVTVSS
VL: DIQMTQSPSSLSASVGDRVTITCRTSQDIRDDLGWYQQKPGKAPKRLIYDASSLQSGVPSRFSGSGSGTEFTLTISSLQPEDFATYYCLQHNSYPPTFGQGTKVEIK
notes: Fab fragment; the Fab's constant parts are not; also called 3C6 Fab; PL-39193
NF-kB IC50 nM, cyno TL1A (2 nM) (cynomolgus TL1A [3]): > 100 nM
NF-kB IC50 nM, huTL1A (0.2 nM) (human TL1A [4]): 0.162 nM
binding result (cynomolgus TL1A [5]): no binding (tested: 100 nM)
Kd (human TL1A [6]): < 0.1 nM
koff (human TL1A [6]): < 5e-05 s⁻¹

B3: anti-TL1A mAb 17E9 (antibody, human IgG1, kappa, N297G, V domains shown)
VH: QVQLVESGGGVVQPGRSLRLSCAASGFTLSSYGMHWVRQAPGKGLEWVAVMSYDGNNKLYADSVKGRFTISRDNSKKTLYLQMNSLRAEDTAVYYCARDETETLYYYYGIDVWGQGTTVTVSS
VL: DIQMTQSPSSLSASVGDRVTITCRASQGISNDLAWYQQKPGKAPKRLIFAASSLQSGVPSRFSGSGSGTEFTLTISSLQPEDFATYYCLQHNSYPPTFGGGTKVEIKR
notes: also called PL-39113; iPS 284078
Kd (cynomolgus TL1A [1]): 2.8 nM
koff (cynomolgus TL1A [1]): 0.002 s⁻¹
kon (cynomolgus TL1A [1]): 730000 M⁻¹ s⁻¹
Kd (human TL1A [2]): 0.22 nM
koff (human TL1A [2]): 5.3e-05 s⁻¹
kon (human TL1A [2]): 250000 M⁻¹ s⁻¹
NF-kB IC50 nM, cyno TL1A (2 nM) (cynomolgus TL1A [3]): > 100 nM
NF-kB IC50 nM, huTL1A (0.2 nM) (human TL1A [4]): 0.168 nM

B4: anti-TL1A Fab 17E9 (Fab, V domains shown)
VH: QVQLVESGGGVVQPGRSLRLSCAASGFTLSSYGMHWVRQAPGKGLEWVAVMSYDGNNKLYADSVKGRFTISRDNSKKTLYLQMNSLRAEDTAVYYCARDETETLYYYYGIDVWGQGTTVTVSS
VL: DIQMTQSPSSLSASVGDRVTITCRASQGISNDLAWYQQKPGKAPKRLIFAASSLQSGVPSRFSGSGSGTEFTLTISSLQPEDFATYYCLQHNSYPPTFGGGTKVEIK
notes: Fab fragment; the Fab's constant parts are not; also called 17E9 Fab; PL-39194
NF-kB IC50 nM, cyno TL1A (2 nM) (cynomolgus TL1A [3]): > 100 nM
NF-kB IC50 nM, huTL1A (0.2 nM) (human TL1A [4]): 70.8 nM
binding result (cynomolgus TL1A [5]): no binding (tested: 100 nM)
Kd (human TL1A [6]): < 0.1 nM
koff (human TL1A [6]): < 5e-05 s⁻¹

B5: hetero Ig certolizumab var/2G11 var, iPS 349461 (bispecific antibody, human IgG1, kappa, N297G)
light 1: not shown
heavy 1: not shown
light 2: DIQMTQSPSSLSASVGDRVTITCRASQSINNYLNWYQKKPGKAPKLLIYATSSLQSGVPSRFSGSGSGTDFSLTISSLQPEDFATYFCQQSYSTPRTFGQGTKVEIKRTVAAPSVFIFPPSDEQLKSGTASVVCLLNNFYPREAKVQWKVDNALQSGNSQESVTEQDSKDSTYSLKSTLTLSKADYEKHKVYACEVTHQGLSSPVTKSFNRGEC
heavy 2: QVQLQESGPGLVKPSETLSLTCTVSGGSISSYFWSWIREPPGKGLEWIGYIYYSGSTNYNPSLKSRVTMSIDTSKNQFSLKLSSVTAADTAVYYCAREIGSYYGFDYWGQGTLVTVSSASTKGPSVFPLAPSSKSTSGGTAALGCLVKDYFPEPVTVSWNSGALTSGVHTFPAVLQSSGLYSLESVVTVPSSSLGTQTYICNVNHKPSNTKVDKKVEPKSCDKTHTCPPCPAPELLGGPSVFLFPPKPKDTLMISRTPEVTCVVVDVSHEDPEVKFNWYVDGVEVHNAKTKPCEEQYGSTYRCVSVLTVLHQDWLNGKEYKCKVSNKALPAPIEKTISKAKGQPREPQVYTLPPSRKEMTKNQVSLTCLVKGFYPSDIAVEWESNGQPENNYKTTPPVLKSDGSFFLYSKLTVDKSRWQQGNVFSCSVMHEALHNHYTQKSLSLSPGK
notes: Heterotetramer with one arm against TNF-α and one against TL1A; also called PL-42787
Kd (human TNF-α): 0.019 nM
koff (human TNF-α): 6.4e-05 s⁻¹
kon (human TNF-α): 3.4e+06 M⁻¹ s⁻¹
Kd (human TL1A [7]): 0.25 nM
koff (human TL1A [7]): 0.00013 s⁻¹
kon (human TL1A [7]): 540000 M⁻¹ s⁻¹

B6: anti-TL1A mAb 23B3 (antibody, human IgG1, kappa, N297G, V domains shown)
VH: QVQLQQSGPGLVKPSQTLSLTCVISGDSVSTNSVAWNWIRQSPSRGLEWLGRTYYRSKWYNDYAVSVKSRITINPDTSKNQFSLQLNSVTPEDTAVYYCAREDGDSYYRYGMDVWGQGTTVTVSS
VL: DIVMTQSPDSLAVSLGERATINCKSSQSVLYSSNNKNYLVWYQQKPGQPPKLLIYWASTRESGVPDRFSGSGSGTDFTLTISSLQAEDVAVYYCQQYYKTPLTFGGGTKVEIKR
notes: also called iPS 290043
Kd (cynomolgus TL1A [1]): 1.4 nM
koff (cynomolgus TL1A [1]): 0.00032 s⁻¹
kon (cynomolgus TL1A [1]): 230000 M⁻¹ s⁻¹
Kd (human TL1A [2]): 0.89 nM
koff (human TL1A [2]): 0.00042 s⁻¹
kon (human TL1A [2]): 470000 M⁻¹ s⁻¹
NF-kB IC50 nM, cyno TL1A (2 nM) (cynomolgus TL1A [3]): 0.619 nM
NF-kB IC50 nM, huTL1A (0.2 nM) (human TL1A [4]): 0.089 nM

B7: anti-TL1A Fab 23B3 (Fab, V domains shown)
VH: QVQLQQSGPGLVKPSQTLSLTCVISGDSVSTNSVAWNWIRQSPSRGLEWLGRTYYRSKWYNDYAVSVKSRITINPDTSKNQFSLQLNSVTPEDTAVYYCAREDGDSYYRYGMDVWGQGTTVTVSS
VL: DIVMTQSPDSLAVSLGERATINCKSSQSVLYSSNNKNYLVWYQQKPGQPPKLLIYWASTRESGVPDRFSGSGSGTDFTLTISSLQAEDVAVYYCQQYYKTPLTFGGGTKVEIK
notes: Fab fragment; the Fab's constant parts are not; also called 23B3 Fab; PL-38024
NF-kB IC50 nM, cyno TL1A (2 nM) (cynomolgus TL1A [3]): 2.63 nM
NF-kB IC50 nM, huTL1A (0.2 nM) (human TL1A [4]): 2.99 nM
Kd (cynomolgus TL1A [8]): 0.31 nM
koff (cynomolgus TL1A [8]): 0.00016 s⁻¹
kon (cynomolgus TL1A [8]): 530000 M⁻¹ s⁻¹
Kd (human TL1A [6]): 0.85 nM
koff (human TL1A [6]): 0.00064 s⁻¹
kon (human TL1A [6]): 760000 M⁻¹ s⁻¹

B8: anti-TL1A Fab 9C8 (Fab, V domains shown)
VH: QVQLQESGPGLVKPSETLSLTCTVSGGSISSYFWSWIRQPPGKGLEWIGYIYYSGNTKYNPSLKSRVTISIDTSKNQFSLKLSSVTAADTAVYYCARETGSYYGFDYWGQGTLVTVSS
VL: DIQMTQSPSSLSASVGDRVTITCRASQSINNYLNWYQQRPGKAPKLLIYAASSLQSGVPSRFSGSGSGTDFTLTISSLQPGDFATYYCQQSYSTPRTFGQGTKLEIK
notes: Fab fragment; the Fab's constant parts are not; also called 9C8 Fab; PL-39197
NF-kB IC50 nM, huTL1A (0.2 nM) (human TL1A [4]): 2.43 nM
Kd (human TL1A [6]): < 0.1 nM

B9: anti-TL1A Fab 2G11 (Fab, V domains shown)
VH: QVQLQESGPGLVKPSETLSLTCTVSGGSISSYFWSWIRQPPGKGLEWIGYIYYSGSTNYNPSLKSRVTMSIDTSKNQFSLKLSSVTAADTAVYYCAREIGSYYGFDYWGQGALVTVSS
VL: DIQMTQSPSSLSASVGDRVTITCRASQSINNYLNWYQQKPGIAPKLLIYATSSLQSGVPSRFSGSGSGTDFSLTISSLQPEDFATYFCQQSYSTPRTFGQGTKVEIK
notes: Fab fragment; the Fab's constant parts are not; also called 2G11 Fab; PL-38025
NF-kB IC50 nM, huTL1A (0.2 nM) (human TL1A [4]): 0.551 nM
Kd (human TL1A [6]): < 0.3 nM

B10: hetero Ig certolizumab var/23B3 VH4, iPS 349463 (bispecific antibody, human IgG1, kappa, N297G)
light 1: not shown
heavy 1: not shown
light 2: not shown
heavy 2: QVQLQESGPGLVKPSETLSLTCTISGDSVSTNSVAWNWIREPPGKGLEWIGRTYYRSKWYNDYAVSLKSRVTISPDTSKNQFSLKLSSVTAADTAVYYCAREDGDSYYRYGMDVWGQGTTVTVSSASTKGPSVFPLAPSSKSTSGGTAALGCLVKDYFPEPVTVSWNSGALTSGVHTFPAVLQSSGLYSLESVVTVPSSSLGTQTYICNVNHKPSNTKVDKKVEPKSCDKTHTCPPCPAPELLGGPSVFLFPPKPKDTLMISRTPEVTCVVVDVSHEDPEVKFNWYVDGVEVHNAKTKPCEEQYGSTYRCVSVLTVLHQDWLNGKEYKCKVSNKALPAPIEKTISKAKGQPREPQVYTLPPSRKEMTKNQVSLTCLVKGFYPSDIAVEWESNGQPENNYKTTPPVLKSDGSFFLYSKLTVDKSRWQQGNVFSCSVMHEALHNHYTQKSLSLSPGK
notes: Heterotetramer with one arm against TNF-α and one against TL1A; also called PL-42788
Kd (human TNF-α): 0.016 nM
koff (human TNF-α): 5.5e-05 s⁻¹
kon (human TNF-α): 3.4e+06 M⁻¹ s⁻¹
Kd (human TL1A [7]): 0.64 nM
koff (human TL1A [7]): 0.0004 s⁻¹
kon (human TL1A [7]): 630000 M⁻¹ s⁻¹
